Source: patent publication US20160159862A1 (PROTAGONIST THERAPEUTICS, published 2016)
Bridge positions count the residues as written; N and C are the ends. Square brackets hold non-standard residues; d marks the D form. Primed or numbered codes have the meaning given here. Ends that are not written are not given here. PEG13′ = Bifunctional PEG linker with 13 polyethylene glycol units; PEG25′ = Bifunctional PEG linker with 25 polyethylene glycol units; Phe(4-CF3) = N[C@@H](Cc1ccc(C(F)(F)F)cc1)C(=O)O; Phe(4-tBu) = CC(C)(C)c1ccc(C[C@H](N)C(=O)O)cc1; Bip = N[C@@H](Cc1ccc(-c2ccccc2)cc1)C(=O)O; Phe(4-CN) = N#Cc1ccc(C[C@H](N)C(=O)O)cc1; 1Nal = N[C@@H](Cc1cccc2ccccc12)C(=O)O; 2Nal = N[C@@H](Cc1ccc2ccccc2c1)C(=O)O; NMeR = CN[C@@H](CCCNC(=N)N)C(=O)O; Tic = O=C(O)[C@@H]1Cc2ccccc2CN1; β3hE = N[C@@H](CCC(=O)O)CC(=O)O; NMeK = CN[C@@H](CCCCN)C(=O)O; Pen = CC(C)(S)[C@H](N)C(=O)O; hLeu = CC(C)CC[C@H](N)C(=O)O

Target: α4β7 integrin on human cells (human, UniProt P13612 34-1032; P26010 20-798)
Assay: cell-based or functional assay

| Binder | PBMC IC50 | α4β7 cell (Hu) IC50 |
| --- | --- | --- |
| Ac-[Pen][NMeR]SDTL[Pen][2Nal][Tic][dK]-NH2 (disulfide 1-7 (inferred); also: homodimer via DIG) [SEQ ID NO 121] | – | > 100 nM |
| Ac-[Pen][NMeR]SDTL[Pen]Y[dE][dK]-NH2 (disulfide 1-7 (inferred); also: homodimer via DIG) [SEQ ID NO 123] | – | > 50 nM |
| Ac-[Pen][NMeR]SDTL[Pen][2Nal][dR][dK]-NH2 (disulfide 1-7 (inferred); also: homodimer via DIG) [SEQ ID NO 120] | – | > 1000 nM |
| Ac-[Pen][NMeR]SDTL[Pen]HE[dK]-NH2 (disulfide 1-7 (inferred); also: homodimer via DIG) [SEQ ID NO 25] | – | > 10 nM |
| [PEG13′]C[NMeR]SDTL[Pen]W-NH2 (disulfide 2-8 (inferred)) [SEQ ID NO 20] | – | > 50 nM |
| Ac-[Pen][NMeR]SDTL[Pen][dW]E[dK]-NH2 (disulfide 1-7 (inferred); also: homodimer via DIG) [SEQ ID NO 28] | – | > 50 nM |
| [PEG25′]C[NMeR]SDTL[Pen]W-NH2 (disulfide 2-8 (inferred)) [SEQ ID NO 21] | – | > 50 nM |
| Ac-[Pen][NMeR]SDTL[Pen][1Nal][Tic][dK]-NH2 (disulfide 1-7 (inferred); also: homodimer via DIG) [SEQ ID NO 115] | – | > 100 nM |
| Ac-[Pen][NMeR]SDTL[Pen][2Nal][dH][dK]-NH2 (disulfide 1-7 (inferred); also: homodimer via DIG) [SEQ ID NO 118] | – | > 25 nM |
| Ac-[Pen][NMeR]SDTL[Pen]H[dE][dK]-NH2 (disulfide 1-7 (inferred); also: homodimer via DIG) [SEQ ID NO 124] | – | > 100 nM |
| Ac-[Pen][NMeR]SDTL[Pen]HY[dK]-NH2 (disulfide 1-7 (inferred); also: homodimer via DIG) [SEQ ID NO 26] | – | > 100 nM |
| Ac-[Pen][NMeR]SDTL[Pen][2Nal][dL][dK]-NH2 (disulfide 1-7 (inferred); also: homodimer via DIG) [SEQ ID NO 119] | – | > 500 nM |
| Ac-[Pen][NMeR]SDTL[Pen]W[BetaE][dK]-NH2 (disulfide 1-7 (inferred); also: dimer via DIG) [SEQ ID NO 1] | – | > 50 nM |
| Ac-[Pen][NMeR]SDTL[Pen][Phe(4-CF3)][dE][dK]-NH2 (disulfide 1-7 (inferred); also: homodimer via DIG) [SEQ ID NO 122] | – | > 50 nM |
| Ac-[Pen][NMeR]SDTL[Pen][1Nal][dT][dK]-NH2 (disulfide 1-7 (inferred); also: homodimer via DIG) [SEQ ID NO 116] | – | > 50 nM |
| Ac-[Pen][NMeR]SDTL[Pen][2Nal][dY][dK]-NH2 (disulfide 1-7 (inferred); also: homodimer via DIG) [SEQ ID NO 27] | – | > 25 nM |
| Ac-[Pen][NMeR]SDTL[Pen][2Nal][dF][dK]-NH2 (disulfide 1-7 (inferred); also: homodimer via DIG) [SEQ ID NO 117] | – | > 100 nM |

Further lines, results first:

| PBMC IC50 | α4β7 cell (Hu) IC50 | Binder |
| --- | --- | --- |
| ≤ 10 nM | ≤ 10 nM | Ac-[Pen][NMeR]SDTL[Pen][Phe(4-tBu)][b‑H‑E][dK]-NH2 (disulfide 1-7 (inferred); also: homodimer via IDA-PEG4-Biotin) [SEQ ID NO 167] |
| – | > 1000 nM | Ac-[Pen][NMeR]SD[hLeu]L[Pen][2Nal][dE]-NH2 (disulfide 1-7 (inferred)) [SEQ ID NO 161] |
| – | > 1000 nM | Ac-XRSDXLXXE-NH2 (disulfide 1-7 (inferred); not fully specified (residues 1, 2, 5, 7, 8, 9); printed as Ac-Pen-(N-Me-R)-S-D-Cha-L-Pen-(2-Nal)-e-NH2, disulfide) [SEQ ID NO 158] |
| – | > 10 nM | Ac-[Pen][NMeR]SDTL[Pen][Phe(4-tBu)][b‑H‑E][dK] (disulfide 1-7 (inferred); not fully specified (residue 10); also: hexanoic acid attached after k) [SEQ ID NO 170] |
| – | > 1000 nM | Ac-[Pen][NMeR]SDTF[Pen][2Nal][dE]-NH2 (disulfide 1-7 (inferred)) [SEQ ID NO 162] |
| – | > 100 nM | XRSDTLXW (Ac-Pen-(N-Me-R)-S-D-T-L-Pen-W-OH; disulfide) [SEQ ID NO 127] |
| – | > 100 nM | Ac-[Pen][NMeR]SDVL[Pen][2Nal][dE]-NH2 (disulfide 1-7 (inferred)) [SEQ ID NO 156] |
| – | > 10 nM | Ac-[Pen][NMeR]SDTL[Pen][2Nal][dT][dK]-NH2 (disulfide 1-7 (inferred); also: homodimer via DIG) [SEQ ID NO 140] |
| – | ≤ 10 nM | Ac-[Pen][NMeR]SDTL[Pen][Bip][β3hE][dK]-NH2 (disulfide 1-7 (inferred); also: homodimer via DIG) [SEQ ID NO 135] |
| – | > 1000 nM | Ac-[Pen][NMeR]SDTY[Pen][2Nal][dE]-NH2 (disulfide 1-7 (inferred)) [SEQ ID NO 164] |
| – | > 10 nM | Ac-[Pen][NMeR]SDTL[Pen][Phe(4-tBu)][b‑H‑E][dK] (disulfide 1-7 (inferred); not fully specified (residue 10); also: 4,4,4-trifluorobutyric acid attached after k) [SEQ ID NO 169] |
| ≤ 10 nM | ≤ 10 nM | Ac-[Pen][NMeR]SDTL[Pen][Phe(4-tBu)][b‑H‑E][dK]-OH (disulfide 1-7 (inferred); also: homodimer via DIG) [SEQ ID NO 168] |
| – | 965 nM | Ac-[Pen][NMeR]SDTL[Pen][Phe(4-tBu)][b‑H‑E][dK] (disulfide 1-7 (inferred); not fully specified (residue 10); also: palmitoyl (palmitoyl chloride) attached after k) [SEQ ID NO 172] |
| – | > 1000 nM | Ac-[Pen][NMeR]SDIL[Pen][2Nal][dE]-NH2 (disulfide 1-7 (inferred)) [SEQ ID NO 160] |
| – | > 10 nM | Ac-[Pen][NMeR]SDTL[Pen][Phe(4-tBu)][b‑H‑E][dK] (disulfide 1-7 (inferred); not fully specified (residue 10); also: isovaleric acid attached after k) [SEQ ID NO 171] |
| > 100 nM | > 10 nM | Ac-[Pen][NMeR]SDTL[Pen][Phe(4-tBu)][b‑H‑E]-NH2 (disulfide 1-7 (inferred)) [SEQ ID NO 165] |
| – | ≤ 10 nM | Ac-[Pen][NMeR]SDTL[Pen][Phe(4-CN)][β3hE][dK]-NH2 (disulfide 1-7 (inferred); also: homodimer via DIG) [SEQ ID NO 139] |
| ≤ 10 nM | ≤ 10 nM | Ac-[Pen][NMeR]SDTL[Pen][Phe(4-tBu)][b‑H‑E][dK]-NH2 (disulfide 1-7 (inferred); also: homodimer via IDA) [SEQ ID NO 166] |
| – | ≤ 10 nM | Ac-[Pen][NMeR]SDTL[Pen][Bip]E[NMeK]-NH2 (disulfide 1-7 (inferred); also: homodimer via DIG) [SEQ ID NO 136] |
| – | > 1000 nM | Ac-[Pen][NMeR]SDFL[Pen][2Nal][dE]-NH2 (disulfide 1-7 (inferred)) [SEQ ID NO 157] |
| – | > 1000 nM | Ac-[Pen][NMeR]SDLL[Pen][2Nal][dE]-NH2 (disulfide 1-7 (inferred)) [SEQ ID NO 159] |
| – | > 1000 nM | Ac-[Pen][NMeR]SDTQ[Pen][2Nal][dE]-NH2 (disulfide 1-7 (inferred)) [SEQ ID NO 163] |
| – | > 50 nM | Ac-[Pen][NMeR]SDTL[Pen]WE-OH (disulfide 1-7 (inferred)) [SEQ ID NO 128] |
